The source of these data is publication PMC8171077.

Data set [1] can be described thus: FITC-FA fluorescence microscopy of stable cell lines, 24 h. Particulars: glycan lost; control: FOLR1 WT stable cells.
Data set [2] is described as follows: qRT-PCR and label-free quantitative proteomics of FOLR1. Particulars: glycan changed form; control: matched control stable cells.

B1: folate receptor alpha (FOLR1): N69A (protein)
parent chain: MAQRMTTQLLLLLVWVAVVGEAQTRIAWARTELLNVCMNAKHHKEKPGPEDKLHEQCRPWRKNACCSTNTSQEAHKDVSYLYRFNWNHCGEMAPACKRHFIQDTCLYECSPNLGPWIQQVDQSWRKERVLNVPLCKEDCEQWWEDCRTSYTCKSNWHKGWNWTSGFNKCAVGAACQPFHFYFPTPTVLCNEIWTHSYKVSNYSRGSGRCIQMWFDPAQGNPNEEVARFYAAAMSGAGPWAAWPFLLSLALMLLWLLS
Take B1: the “other: folate uptake” value in data set [1] is recorded as “decreases”.

B2: folate receptor alpha (FOLR1): shFUT8 (protein)
parent chain: B1 parent chain
Regarding B2, the expression_or_secretion result in data set [2] was “no change”.

B3: folate receptor alpha (FOLR1): FUT8 overexpression (protein)
parent chain: B1 parent chain
B3: in data set [2], the expression_or_secretion entry is “no change”.

B4: folate receptor alpha (FOLR1): N161A (protein)
parent chain: B1 parent chain
Regarding B4, the “other: folate uptake” value in data set [1] was “decreases”.

B5: folate receptor alpha (FOLR1): N201A (protein)
parent chain: B1 parent chain
As to B5, the “other: folate uptake” value in data set [1] was “decreases”.
